Test results as given in patent US20220112268A1.

Key:
[1] = biological target: T cell receptor of OT-I T cells (cognate to the SIINFEKL tetramer), on OT-I T cells; experiment: labeled NP incubated with an OT-I/OT-II T cell mixture (1:1); reference free αPD-1 (FIG. 7B)
[2] = biological target: PD-1 on PD-1-positive cells (EL4 cells) (UniProt Q02242); experiment: inhibition of PD-L1-human Fc (10 µg/mL) binding to EL4 cells, flow cytometry, competitor PD-L1-human Fc
[3] = biological target: PD-1 on PD-1-positive cells (EL4 cells) (UniProt Q02242); experiment: direct binding of Alexa Fluor 647-labeled sample to EL4 cells, flow cytometry, fraction of positive cells
[4] = biological target: PD-1 on PD-1-positive cells (EL4 cells) (UniProt Q02242); experiment: inhibition of PD-L1-human Fc binding to EL4 cells; reference intact αPD-1
[5] = biological target: PD-1 on PD-1-positive cells (EL4 cells) (UniProt Q02242); experiment: inhibition of PD-L1-human Fc binding to EL4 cells; reference soluble αPD-1-iTEP fusion
[6] = biological target: PD-1 on PD-1-positive cells (EL4 cells) (UniProt Q02242); experiment: direct binding to EL4 cells, flow cytometry; reference intact αPD-1

Sequence of UniProt Q02242 (Q02242 25-288 limits assumed): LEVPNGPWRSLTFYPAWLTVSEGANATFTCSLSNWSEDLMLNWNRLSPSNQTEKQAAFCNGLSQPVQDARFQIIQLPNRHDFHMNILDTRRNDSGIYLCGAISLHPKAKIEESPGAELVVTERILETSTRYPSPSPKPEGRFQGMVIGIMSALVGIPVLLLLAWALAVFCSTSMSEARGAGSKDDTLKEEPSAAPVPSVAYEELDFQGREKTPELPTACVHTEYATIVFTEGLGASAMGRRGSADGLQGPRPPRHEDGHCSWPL

Substance	targeting efficiency (OT-I:OT-II ratio of guided NPs divided by the OT-I:OT-II ratio of free αPD-1) [1]	EC50 [2] [nM]	EC50 [3] [nM]	fold lower inhibition capacity than intact αPD-1 [4] [fold]	fold higher inhibition capacity than the soluble αPD-1-iTEP fusion [5] [fold]	fold smaller EC50 than intact αPD-1 [6] [fold]	fold stronger avidity than intact αPD-1 [6] [fold]
SIINFEKL tetramer-guided αPD-1 NP, nanoparticle assembled from iTEP-αPD-1 and iTEP-tetramer (H2-Kb/SIINFEKL) mixed at a 1-to-10 ratio (from UniProt P22629 37-163; P01901 22-305)	37.3						
intact αPD-1 (anti-programmed death-1 antibody, RMP1-14 clone, IgG from hybridoma ascites)		1320	110				

More lines, now with the values ahead:

targeting efficiency (OT-I:OT-II ratio of guided NPs divided by the OT-I:OT-II ratio of free αPD-1) [1]	EC50 [2] [nM]	EC50 [3] [nM]	fold lower inhibition capacity than intact αPD-1 [4] [fold]	fold higher inhibition capacity than the soluble αPD-1-iTEP fusion [5] [fold]	fold smaller EC50 than intact αPD-1 [6] [fold]	fold stronger avidity than intact αPD-1 [6] [fold]	Substance
	4590	400	3				soluble αPD-1-iTEP fusion, αPD-1(scFv) fused to the amphiphilic diblock iTEP (GAGVPG)70-(GVLPGVG)56-(GC)4
	1190	39		3	3	4	αPD-1 NP, the nanoparticle form of the αPD-1-iTEP fusion, self-assembled and crosslinked by disulfide bonds
	4160	320	3				αPD-1 scFv (recombinant single-chain variable fragment of the anti-PD-1 antibody clone RMP1-14), NH2-Histag(H6)-(GGGSG)3-VH-(GGGSG)4-VL-COOH
